# Measured values: patent publication US20110117206A1, “PHOSPHOPEPTIDES AND USE OF THE SAME” (PLANT BIOSCIENCE LIMITED, priority 2008, published 2011)
# Assay: Ca2+ binding isotherm (Ca ion selective electrode) fitted with semi-empirical binding model
# Details: 6.4 = high affinity dianionic phosphoseryl sites; listed as OPN peptide
# Excerpt: To model the chemical species in the OPN 1-149 nanocluster solution requires the calculation of Ca ion binding to the free peptide at any pH in the range 5.0-8.0. A semi-empirical model was used to describe the binding isotherms obtained previously for the β-casein 1-25 phosphopeptide in this pH range and the same model was adapted to fit the binding isotherm of OPN 1-149 measured at pH 7.0. The rescaled model was then used to predict binding at any other value of the pH. Binding of Ca ions to the β-casein 1-25 peptide is predominantly to 4 phosphorylated residues and, to a lesser extent, to 7 Glu residues and the C-terminus.
# Fitting of the experimental isotherms was done to an equation of the form
# where the summation is over all binding sites with Ca ion association constants Ka,i. The function Ni(pH) describes the number of sites of type i as a function of pH and φi is the degree of phosphorylation. It was assumed, that all the phosphorylated sites had the average degree of phosphorylation φ. The number of dianionic phosphoseryl sites at a given pH is given by
# The binding behaviour of β-casein has shown that one Ca ion is bound much more strongly than the rest, so the model for binding to the phosphate dianionic groups allowed for two pKs and two Ca ion association constants. The phosphorylated sites have a reduced affinity for Ca ions when they become protonated and were treated as having the same low affinity as the carboxyl groups. […]
# The Ca^2+ binding isotherm of peptides recovered from fraction F3a was determined by measuring the concentration of free Ca ions with a Ca ion selective electrode after successive small additions of a stock solution of 100 mM Ca(NO3)2 to a solution containing 25 mg ml^−1 of F3a, buffered to pH 7.0 with 20 mM P, and 50 mM KNO3. […] The calculated OPN 1-149 isotherm was obtained by a separate fitting of the single isotherm employing a model with two pKs and association constants but keeping as many as possible of the constants from the casein model.
substance,measurement,value
"OPN 1-149: N-terminal osteopontin phosphopeptide fragment from bovine milk, probably formed by plasmin; gel filtration fraction F3a",pKs fitted to the OPN 1-149 isotherm,6.4
